Here are results for 5 molecules from US20220235109A1 (CUGENE, published 2022).

One assay concerns the target huPD-1-His (human, UniProt Q15116 25-167, limits assumed). Briefly: ELISA, huPD-1-His coated. The method, then:
A panel of IL-2 muteins was expressed as C-terminal fusions to the Fc homodimer of Fc heterodimer and screened for binding to IL-2Rα in enzyme-linked immunosorbent assay (ELISA). Briefly, IL-2Rα-ECD (SEQ ID NO: 5) was coated onto the wells of Nunc Maxisorp 96-well microplates at 0.1 μg/well. After overnight incubation at 4° C. and blocking with superblock (Thermo Fisher), 3-fold serial dilutions of IL-2 Fc fusion proteins starting at 100 nM were added to each well at 100 μI/well. Following one-hour incubation at room temperature, 100 μl/well of goat anti-human IgG Fc-HRP (1:5000 diluted in diluent) were added to each well and incubated at room temperature for 1 hour. Wells were thoroughly aspirated and washed three times with PBS/0.05% Tween-20 following each step. Finally, 100 μl TMB substrate was added to each well; the plate was developed at room temperature in the dark for 10 minutes, and 100 μl/well of stop solution (2N Sulfuric acid, Ricca Chemical) was added. Absorbance was determined at 450 nm and curves were fit using Prism software (Graph Pad).
(§1) For direct binding, the same ELISA protocol in Example 4 was followed using huPD-1-His as the coating antigen. […] Briefly, plate was coated with 0.2 μg/well of human PD1-Fc protein at 4° C. for overnight. […] Streptavidin-HRP was added as the secondary antibody.
(An ELISA detects its analyte on a solid surface through an enzyme-linked reagent.)

A further assay addresses human PD1-Fc protein (human, UniProt Q15116 25-167, limits assumed). As to the kind of experiment: competition ELISA, human PD1-Fc coated, biotinylated Human PDL1-Fc at 0.5 µg/mL as the ligand displaced. The method, then: as §1
In assay [1] the target is PD-1 on PD-1 positive T cells (Tregs) of human PBMC (human, UniProt Q15116 25-288). As to the kind of experiment: cell-based or functional assay.
Chain of PD-1 on PD-1 positive T cells (Tregs) of human PBMC (Q15116 25-288): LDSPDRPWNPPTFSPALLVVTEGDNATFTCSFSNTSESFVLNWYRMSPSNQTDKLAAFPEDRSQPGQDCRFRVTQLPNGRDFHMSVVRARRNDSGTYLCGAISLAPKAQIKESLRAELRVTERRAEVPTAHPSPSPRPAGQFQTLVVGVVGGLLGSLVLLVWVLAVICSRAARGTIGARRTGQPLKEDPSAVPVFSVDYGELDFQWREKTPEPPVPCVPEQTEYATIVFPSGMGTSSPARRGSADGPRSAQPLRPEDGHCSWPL
Assay [2] concerns the target T1, recombinant IL-2Rβγ heterodimer (human).
T1 construct: IL-2Rβ ECD at the N-terminus of Fc hole chain, γc ECD at the N-terminus of Fc knob chain; also called recombinant IL-2Rβγ protein; dimeric IL-2Rβγ receptor
T1 chain 1: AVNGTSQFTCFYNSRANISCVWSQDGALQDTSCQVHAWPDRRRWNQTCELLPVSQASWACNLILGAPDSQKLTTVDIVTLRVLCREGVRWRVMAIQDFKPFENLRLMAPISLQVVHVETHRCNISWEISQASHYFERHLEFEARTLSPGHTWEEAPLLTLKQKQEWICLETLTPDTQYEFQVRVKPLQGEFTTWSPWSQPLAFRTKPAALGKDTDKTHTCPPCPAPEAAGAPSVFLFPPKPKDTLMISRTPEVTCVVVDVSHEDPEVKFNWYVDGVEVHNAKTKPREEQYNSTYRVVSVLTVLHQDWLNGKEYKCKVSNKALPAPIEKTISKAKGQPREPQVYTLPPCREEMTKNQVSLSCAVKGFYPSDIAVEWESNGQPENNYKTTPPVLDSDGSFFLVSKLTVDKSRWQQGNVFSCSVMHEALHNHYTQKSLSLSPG
T1 chain 2: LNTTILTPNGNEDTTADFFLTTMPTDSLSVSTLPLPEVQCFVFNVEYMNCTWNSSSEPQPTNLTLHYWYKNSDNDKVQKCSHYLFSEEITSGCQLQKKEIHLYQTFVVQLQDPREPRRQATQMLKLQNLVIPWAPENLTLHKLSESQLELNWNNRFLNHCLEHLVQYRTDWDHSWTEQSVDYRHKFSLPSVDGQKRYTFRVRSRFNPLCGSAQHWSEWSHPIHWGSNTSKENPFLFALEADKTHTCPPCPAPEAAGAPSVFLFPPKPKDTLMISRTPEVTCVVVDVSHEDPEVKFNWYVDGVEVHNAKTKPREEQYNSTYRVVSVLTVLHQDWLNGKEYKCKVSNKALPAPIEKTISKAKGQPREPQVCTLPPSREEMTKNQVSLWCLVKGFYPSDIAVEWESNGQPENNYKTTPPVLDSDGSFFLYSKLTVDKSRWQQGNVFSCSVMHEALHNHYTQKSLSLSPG
As to the kind of experiment: ELISA, IL-2Rβγ-Fc heterodimer coated. The method, then: After overnight incubation at 4° C. and blocking with 1% BSA, 3-fold serial dilutions of IL-2 Fc fusion proteins starting at 10 nM were added to each well at 100 μl/well. […] Subsequently, 100 μl/well of streptavidin-HRP (1:5000 diluted in diluent) were added to each well and incubated at room temperature for 40 min. Wells were thoroughly aspirated and washed three times with PBS/0.05% Tween-20 following each step. Finally, 100 μl TMB substrate was added to each well; the plate was developed at room temperature in the dark for 10 minutes, and 100 μl/well of stop solution (2N Sulfuric acid, Ricca Chemical) was added. Absorbance was determined at 450 nm and curves were fit using Prism software (GraphPad).

The target of assay [3] is T2, IL-2Rβγ on human CD8+ T cells, NK cells and CD4+ T cells (human, UniProt P14784 27-551; P31785 23-369).
T2 sequence (looked up) 1: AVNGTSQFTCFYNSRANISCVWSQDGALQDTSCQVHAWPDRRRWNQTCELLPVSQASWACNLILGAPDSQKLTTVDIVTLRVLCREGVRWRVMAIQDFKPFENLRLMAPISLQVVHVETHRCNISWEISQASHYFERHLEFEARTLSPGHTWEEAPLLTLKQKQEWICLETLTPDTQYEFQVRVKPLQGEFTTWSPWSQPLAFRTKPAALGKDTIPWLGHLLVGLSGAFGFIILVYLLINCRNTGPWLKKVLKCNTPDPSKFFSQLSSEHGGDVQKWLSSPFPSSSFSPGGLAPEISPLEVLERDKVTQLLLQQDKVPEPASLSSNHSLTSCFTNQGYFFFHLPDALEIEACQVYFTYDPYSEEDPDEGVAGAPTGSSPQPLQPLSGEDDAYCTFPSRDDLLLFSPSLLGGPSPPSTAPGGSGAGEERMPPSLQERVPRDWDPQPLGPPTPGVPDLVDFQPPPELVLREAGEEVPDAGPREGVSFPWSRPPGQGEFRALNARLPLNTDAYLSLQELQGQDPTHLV
T2 sequence (looked up) 2: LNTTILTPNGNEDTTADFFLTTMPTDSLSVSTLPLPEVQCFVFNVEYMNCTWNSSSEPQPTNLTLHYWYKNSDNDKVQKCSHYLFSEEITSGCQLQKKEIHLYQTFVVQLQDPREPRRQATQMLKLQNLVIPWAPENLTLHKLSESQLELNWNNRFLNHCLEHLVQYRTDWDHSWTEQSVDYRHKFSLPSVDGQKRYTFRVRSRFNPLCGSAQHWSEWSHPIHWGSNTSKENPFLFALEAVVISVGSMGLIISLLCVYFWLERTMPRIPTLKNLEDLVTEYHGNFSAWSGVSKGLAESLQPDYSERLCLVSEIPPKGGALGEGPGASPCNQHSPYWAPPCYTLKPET
As to the kind of experiment: cell-based or functional assay.

For assay [4], the target named is T3, IL-2Rα (CD25) on human CD4+ Treg cells (human, UniProt P01589 22-272).
T3 sequence (looked up): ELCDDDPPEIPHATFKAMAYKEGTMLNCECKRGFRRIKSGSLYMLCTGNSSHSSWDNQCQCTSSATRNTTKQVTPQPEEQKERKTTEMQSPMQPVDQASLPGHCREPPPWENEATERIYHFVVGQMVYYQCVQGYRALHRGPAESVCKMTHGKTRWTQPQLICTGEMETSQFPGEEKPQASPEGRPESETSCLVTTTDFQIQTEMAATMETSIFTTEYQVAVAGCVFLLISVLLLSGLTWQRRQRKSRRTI
As to the kind of experiment: cell-based or functional assay.

Residue numbers refer to the chain shown, from its start. Names and notes keep the numbering of the source.

Chain of huPD-1-His (Q15116 25-167 limits assumed): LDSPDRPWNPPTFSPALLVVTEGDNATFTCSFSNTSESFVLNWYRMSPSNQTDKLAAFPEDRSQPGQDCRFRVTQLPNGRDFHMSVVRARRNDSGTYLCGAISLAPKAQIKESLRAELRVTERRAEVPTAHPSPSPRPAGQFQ
Chain of human PD1-Fc protein (Q15116 25-167 limits assumed): as above

B1: P-0795 (antibody, human IgG1, kappa, V domains shown)
VH: EVQLVESGGGLVKPGGSLRLSCAASGFTFSSYDMSWVRQAPGKGLEWVATISGGGSYTYYPDSVKGRFTISRDNAKNSLYLQMNSLRAEDTAVYYCASPDSSGVAYWGQGTLVTVSS
VL: DIVMTQSPLSLPVTPGEPASITCKASQDVETVVAWYLQKPGQSPRLLIYWASTRHTGVPDRFSGSGSGTDFTLKISRVEAEDVGVYYCQQYSRYPWTFGQGTKLEIKR
notes: full heavy and light chains; also called human PD-1 antagonist antibody; hPD1 antibody
In turn, B1 returned an EC50 in the assay with huPD-1-His of 0.6 nM. In the assay with human PD1-Fc protein, the concentration for half-maximal inhibition (IC50) was 2.1 nM.

B2: P-0803 (antibody, human IgG1, kappa)
heavy 1: not shown
heavy 2: EVQLVESGGGLVKPGGSLRLSCAASGFTFSSYDMSWVRQAPGKGLEWVATISGGGSYTYYPDSVKGRFTISRDNAKNSLYLQMNSLRAEDTAVYYCASPDSSGVAYWGQGTLVTVSSASTKGPSVFPLAPSSKSTSGGTAALGCLVKDYFPEPVTVSWNSGALTSGVHTFPAVLQSSGLYSLSSVVTVPSSSLGTQTYICNVNHKPSNTKVDKKVEPKSCDKTHTCPPCPAPEAAGAPSVFLFPPKPKDTLMISRTPEVTCVVVDVSHEDPEVKFNWYVDGVEVHNAKTKPREEQYNSTYRVVSVLTVLHQDWLNGKEYKCKVSNKALPAPIEKTISKAKGQPREPQVYTLPPCREEMTKNQVSLSCAVKGFYPSDIAVEWESNGQPENNYKTTPPVLDSDGSFFLVSKLTVDKSRWQQGNVFSCSVMHEALHNHYTQKSLSLSPG
light: DIVMTQSPLSLPVTPGEPASITCKASQDVETVVAWYLQKPGQSPRLLIYWASTRHTGVPDRFSGSGSGTDFTLKISRVEAEDVGVYYCQQYSRYPWTFGQGTKLEIKRTVAAPSVFIFPPSDEQLKSGTASVVCLLNNFYPREAKVQWKVDNALQSGNSQESVTEQDSKDSTYSLSSTLTLSKADYEKHKVYACEVTHQGLSSPVTKSFNRGEC
notes: also called IL-2 P65R/S125I human PD-1 antibody fusion, (G3S)2 linker
B2 showed an EC50 in the assay with huPD-1-His of 0.6 nM. The “pSTAT5 in PD-1 positive T cells (human PBMC), potency against P-0782” value in assay [1] was over 15 fold. The same molecule had an IC50 with human PD1-Fc protein of 2.1 nM.

B3: P-0731 (Fc fusion)
chain 1: DKTHTCPPCPAPEAAGAPSVFLFPPKPKDTLMISRTPEVTCVVVDVSHEDPEVKFNWYVDGVEVHNAKTKPREEQYNSTYRVVSVLTVLHQDWLNGKEYKCKVSNKALPAPIEKTISKAKGQPREPQVCTLPPSREEMTKNQVSLWCLVKGFYPSDIAVEWESNGQPENNYKTTPPVLDSDGSFFLYSKLTVDKSRWQQGNVFSCSVMHEALHNHYTQKSLSLSPGGGGSGGGSAPTSSSTKKTQLQLEHLLHDLQMILNGINNYKNPKLTRMLTFKFYMPKKATELKHLQCLEEELKRLEEVLNLAQSKNFHLRPRDLISNINVIVLELKGSETTFMCEYADETATIVEFLNRWITFIQSIISTLT
chain 2: DKTHTCPPCPAPEAAGAPSVFLFPPKPKDTLMISRTPEVTCVVVDVSHEDPEVKFNWYVDGVEVHNAKTKPREEQYNSTYRVVSVLTVLHQDWLNGKEYKCKVSNKALPAPIEKTISKAKGQPREPQVYTLPPCREEMTKNQVSLSCAVKGFYPSDIAVEWESNGQPENNYKTTPPVLDSDGSFFLVSKLTVDKSRWQQGNVFSCSVMHEALHNHYTQKSLSLSPG
notes: knob chain carries the IL-2 variant; hole-Fc; monovalent; also called IL-2 L19H/P65R/S125I monovalent Fc fusion
Regarding B3, the binding result in assay [2] was “binds”. In assay [3], the “fold decrease in Ki67 expression on human CD8+ T cells (potency against P-0704)” value was about 30 fold; the “fold decrease in proliferation (Ki67) of human CD8+ T cells, NK cells and CD4+ T cells (potency against P-0704)” value was 30 fold.

B4: P-0761 (Fc fusion)
chain 1: B3 chain 1 with H253Y
chain 2: B3 chain 2
notes: knob chain carries the IL-2 variant; hole-Fc; monovalent; also called IL-2 L19Y/P65R/S125I monovalent Fc fusion
B4: in assay [2], the binding result is “binds”.

B5: P-0782 (antibody, mouse IgG1, kappa)
heavy 1: EVQLQESGPGLVKPSQSLSLTCSVTGYSITSSYRWNWIRKFPGNRLEWMGYINSAGISNYNPSLKRRISITRDTSKNQFFLQVNSVTTEDAATYYCARSDNMGTTPFTYWGQGTLVTVSSAKTTPPSVYPLAPGSAAQTNSMVTLGCLVKGYFPEPVTVTWNSGSLSSGVHTFPAVLQSDLYTLSSSVTVPSSTWPSQTVTCNVAHPASSTKVDKKIVPRDCGCKPCICTVPEVSSVFIFPPKPKDVLTITLTPKVTCVVVAISKDDPEVQFSWFVDDVEVHTAQTKPREEQINSTFRSVSELPIMHQDWLNGKEFKCRVNSAAFGAPIEKTISKTKGRPKAPQVYTIPPPKKQMAKDKVSLTCMITNFFPEDITVEWQWNGQPAENYKNTQPIMKTDGSYFVYSKLNVQKSNWEAGNTFTCSVLHEGLHNHHTEKSLSHSPG
heavy 2: not shown
light: DIVMTQGTLPNPVPSGESVSITCRSSKSLLYSDGKTYLNWYLQRPGQSPQLLIYWMSTRASGVSDRFSGSGSGTDFTLKISGVEAEDVGIYYCQQGLEFPTFGGGTKLELKRTDAAPTVSIFPPSSEQLTSGGASVVCFLNNFYPRDINVKWKIDGSERQNGVLNSWTDQDSKDSTYSMSSTLTLTKDEYERHNSYTCEATHKTSTSPIVKSFNRNEC
Consider B5, for which, in assay [4], the “pSTAT5 EC50 in Treg cells (human PBMC)” value was 4.5 nM and the “pSTAT5 EC50 in Treg cells, fold against P-0837” value was 10000 fold. Besides, in assay [3], the “pSTAT5 EC50 in CD8+ T cells (human PBMC)” value turned out to be 4.6 nM.

In general, EC50 refers to the concentration needed to bring the measured effect to its halfway point. Low readings indicate a more potent agent, high ones a less potent agent. In general, IC50 refers to the concentration needed to halve the response being measured.
